Data as given in patent publication US11905559B2, “Materials and methods for controlling gene expression” (priority 2016, dated 2024).

Tests used:
[1] = Isothermal titration calorimetry (ITC); type: binding; conditions: for Kd: 50 mM K^+ Hepes pH 7.5, 100 mM KCl, 10 mM MgCl2, read-out: KD for guanine
Procedure: For ITC experiments, wild-type G-aptamer and the mutant RNAs were synthesized by in vitro transcription of the DNA template and purified by denaturing polyacrylamide gel electrophoresis (PAGE). The ligand guanine was introduced in the syringe, while the RNA into the sample cell at a final concentration of 10 μM and 1 μM respectively. The concentrations were determined by absorbance reading using ε260=12010 M^−1 cm^−1 (guanine) and ε260=711400 M^−1 cm^−1 (RNA). The buffer in the syringe and the sample cell contained 50 mM K^+ Hepes (pH 7.5), 100 mM KCl, and 10 mM MgCl2. Binding reactions were performed at 30° C. on a MicroCal iTC200 instrument (Malvern) with a reference power of 6 μcal/sec, an initial delay of 60 secs and a stirring speed of 750 rpm. Guanine was titrated into the sample cell in 16 injections (2.5 μl each). The injection rate was 0.5 μl/sec and the spacing between the injections was maintained at 120 sec. Data was baseline corrected and fitted to a single-site binding model to obtain association constant (KA), stoichiometry (n) and binding enthalpy, ΔH. The dissociation constant (KD) and the binding free energy, ΔG was obtained from the fitted parameters using the following relations. All data analysis was performed using the Origin ITC software.
The ITC results are reported as mean±standard deviation from three independent experiments.

[2] = test system: lac Z expression; test: β-galactosidase reporter assay (xpt-lacZ fusion); type: cell-based, B. subtilis; conditions: for lac Z expression / transcriptional control (in words): presence and absence of guanine, B. subtilis
Procedure: Kissing-loop mutants were analyzed to determine whether they can exert riboswitch activities by controlling transcription termination, given that the guanine binding was retained in all of them. To test this, a β-galactosidase reporter assay was performed in B.subtilis. […] The gene expression is repressed in wild-type due to the transcription termination in the presence of guanine. […] The fast kissing dynamics between the L2-L3 probably have a stabilizing effect on P1, and therefore an increase in the transcription termination is observed. […] This underscores that the L2-L3 dynamics are directly involved in the P1-helix formation, which affects the terminator hairpin downstream that ultimately results in an alteration of the riboswitch activities.
To assess if the aptamer mutants can exert a transcriptional control similar to the previously reported wild-type xpt-pbuX riboswitch, a xpt-lacZ fusion was constructed as described by Mandal et al., “Riboswitches control fundamental biochemical pathways in Bacillus subtilis and other bacteria”. Cell 113, 577-586 (2003). Briefly, nts −121 to +197 relative to the transcriptional start site of the xpt-pbuX operon from B. subtilis 1A1 (BGSC, Columbus, Ohio) was PCR amplified and cloned upstream of the lacZ reporter gene into pDG1661 vector. After confirming the cloned sequence, plasmid variants were integrated into the amyE locus of the 1A1 strain. Transformants were selected for double markers, specifically for chloramphenicol (5 μg/ml) resistance and sensitivity to spectinomycin (100 μg/ml). Selected B. subtilis colonies were subsequently grown in minimal media (25 g/L K2HPO4·3H2O, 6 g/L KH2PO4, 1 g/L sodium citrate, 0.2 g/l MgSO4·7H2O, 2 g/L Na2SO4, 50 μM FeCl3, 2 μM MnCl2, 50 μg/ml L-Tryptophan, 50 μg/ml L-Lysine, 50 μg/ml L-Methionine, 0.4 g/100 ml glucose, and 0.2 g/100 ml glutamate) at 37° C. with vigorous shaking. Purines were added at a final concentration of 0.1 mg/ml. Cells were harvested at mid-logarithmic growth phase (A600˜0.1-0.4), and resuspended in the above buffer for the reporter assay. The color development was recorded by measuring absorbance, A420 at the end of the reaction with appropriate controls. Data is represented in Miller Units calculated from the following relation:
[formula] where Δt is the total duration taken in the substrate cleavage by […], measured as absorbance, A420. The Miller Units shown in FIG. 4A represents mean±standard deviation from 3 independent experiments, wherein each independent experiment was performed in duplicate.

Molecule | ΔG of guanine binding ([1]; 30° C.) [kcal/mol] | ΔH of guanine binding ([1]; 30° C.) [kcal/mol] | Kd ([1]; 30° C.) [nM] | lac Z expression / transcriptional control (in words) [2] | Repression exceeding the wild-type repression ([2]; in the presence of guanine) [fold] | KD off relative to wild-type [1] [fold] | Expression higher than the wild-type ([2]; in the presence of guanine) [fold]
wt: 69-nucleotide full-length wild-type guanine sensing aptamer RNA sequence from xpt-pbuX operon in B. subtilis (SEQ ID NO: 1) (nucleic acid, RNA, backbone and methylation of C not given here) CACUCAUAUAAUCGCGUGGAUAUGGCACGCAAGUUUCUACCGGGCACCGUAAAUGUCCGACUAUGGGUG | -11.63 ± 0.20 | -63.7 ± 1.1 | 4.22 ± 0.6 | repressed |  |  | 
m6: m6 mutant guanine sensing aptamer RNA (SEQ ID NO: 7); U67A, shorter P3 hairpin and larger L3 loop (nucleic acid, RNA, backbone and methylation of C not given here, U67A, shorter P3 hairpin and larger L3 loop) CACUCAUAUAAUCGCGUGGAUAUGGCACGCAAGUUUCUACCGGGCACCGUAAAAGUCCGACUAUGGGUG |  |  | 6.7 ± 0.63 | highly repressed | ~3 |  | 
m1: m1 mutant guanine sensing aptamer RNA (SEQ ID NO: 2); G37 replaced with adenine in the L2 loop (nucleic acid, RNA, backbone and methylation of C not given here, G37 replaced with adenine in the L2 loop) CACUCAUAUAAUCGCGUGGAUAUAGCACGCAAGUUUCUACCGGGCACCGUAAAUGUCCGACUAUGGGUG | -9.52 ± 0.22 |  |  | completely de-repressed |  | 35 | 
m7: m7 mutant guanine sensing aptamer RNA (SEQ ID NO: 8); U25C in J1/2 (nucleic acid, RNA, backbone and methylation of C not given here) CACUCAUAUAACCGCGUGGAUAUGGCACGCAAGUUUCUACCGGGCACCGUAAAUGUCCGACUAUGGGUG |  |  | 16.9 ± 1 |  |  |  | ~2.5
m4: m4 mutant guanine sensing aptamer RNA (SEQ ID NO: 5); A59G/U67C in the P3 hairpin (nucleic acid, RNA, backbone and methylation of C not given here, A59G/U67C in the P3 hairpin) CACUCAUAUAAUCGCGUGGAUAUGGCACGCAAGUUUCUACCGGGCGCCGUAAACGUCCGACUAUGGGUG |  |  | 3.59 ± 0.05 | moderately repressed |  |  | ~7
